Measurements as given in PMC4560963 (Molecular cell, 2015).

Target: the molecule itself
Assay: native gel or EMSA

B1: recombinant His6-TAF11 (natural protein)
chain: not shown
stoichiometry N: 4
